Measured values reported in PMC3594298.

Target: 6Xhis-tagged AldE (class 3 aldehyde dehydrogenase encoded by synpcc7942_0489) from S. elongatus PCC7942 (S. elongatus PCC7942)
Experiment: SEC; HiLoad 16/60 SuperDex200 gel filtration column in 150 mM NaCl/50 mM Tris, 7.5/1 mM EDTA; elution compared with MW standards

Substance: 6Xhis-tagged AldE (class 3 aldehyde dehydrogenase encoded by synpcc7942_0489) from S. elongatus PCC7942 (enzyme)
- stoichiometry N: 2
